Data taken from the supplement of paper PMC12042874.
± gives the uncertainty stated by the source.

Assay: amyloid nucleation score (Sup35N fusion, yeast selection) (log enrichment); library NNK2; higher = more nucleation; inactive = no reads after selection
Method in brief: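 The nucleation score equals the log enrichment of output over input reads from DiMSum, centred on the mode score of non-aggregating sequences. It was computed only for sequences with 100 or more input reads. The reads came from Illumina sequencing of plasmid inserts from psi-negative yeast expressing Sup35N fused to peptides of 20 random codons, induced with 100 μM copper sulfate for 24 hours and grown 7 days at 30°C without adenine and uracil.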

| Substance | amyloid nucleation score |
| --- | --- |
| SLDNWFTDSRAGVGLVFS | -0.277 ± 1 |
| SLEDCYCDRVI | -0.528 ± 0.34 |
| SLESSLAYVGSLGIAGGSAQ | 1.11 ± 0.23 |
| SLFAVQTVVEVVVHV | 0.762 ± 0.41 |
| SLFCVPSSRKVLFLGRTVVV | 0.123 ± 1 |
| SLFLDDKEWMKGITKFLMDP | 0.419 ± 0.51 |
| SLFTTINARNATAEQCSMQT | 0.502 ± 0.21 |
| SLGEGISFIVWCDGILLLGC | -1.15 ± 0.76 |
| SLGHDSICWRWSLE | 5.49 ± 0.094 |
| SLIDLLPCFFICRGRCFPSV | -0.672 ± 0.37 |
| SLLHPFLTVGVCMCRYGVNI | 1.81 ± 0.083 |
| SLLLFIYQMDRLVVASMLTN | -0.651 ± 1.1 |
| SLLLMDYFLYYYLSVEKRQR | inactive |
| SLLLYYMGGK | 5.114 ± 0.042 |
| SLMFGLIHSWDMK | inactive |
| SLNLFV | -0.901 ± 0.78 |
| SLPCRIISNLYLPA | -1.23 ± 1.1 |
| SLPFTLLNKSAHWNSLWFPG | -1.24 ± 1.1 |
| SLPIWVRSRVEGLQERISWL | 0.364 ± 0.5 |
| SLPSRYWVSLFCTSLLW | 0.743 ± 0.81 |
| SLQSSYEYINPRSLLHCSHL | -1.44 ± 0.49 |
| SLQYRTSDSQWYVVYCSQEP | 0.484 ± 0.19 |

| Substance | amyloid nucleation score |
| --- | --- |
| SLRWL | -0.18 ± 0.74 |
| SLRYSMRPMAFRFKHPLAPT | -0.166 ± 0.28 |
| SLSLGLSSCEPYYAVC | -0.276 ± 0.28 |
| SLSNVLINCVLVFCW | 6.53 ± 0.076 |
| SLSRLVLECNGKSVRHEKM | 0.393 ± 0.32 |
| SLVFNQAHWNRLIPTT | -1.02 ± 0.63 |
| SLVNYPMKVIGVVRKFW | 2.08 ± 0.13 |
| SLVVPDRYVNARYCNCCYGG | 0.43 ± 0.65 |
| SLYCGGQMLD | inactive |
| SMATSSYMLSAMRTCTLRSV | -0.231 ± 0.63 |
| SMFCVPFMINLVLYVMGEVW | 0.288 ± 0.64 |
| SMILT | -1.11 ± 1.1 |
| SMMKLDEYI | -1.17 ± 0.78 |
| SMNVDTPCSGRWV | -0.249 ± 1.1 |
| SMRVECF | -1.82 ± 1.1 |
| SMRYVVISKQRSILEISLRY | 3.46 ± 0.047 |
| SMSIWSFYIAP | 4.59 ± 0.066 |
| SMSIYKAAYSFVTGSP | 7.475 ± 0.026 |
| SMSYTS | 0.617 ± 0.14 |
| SMTCRDLFSWYGSWYQSILF | 0.874 ± 0.47 |
| SMYSVYSFYTEIGTL | -0.441 ± 0.48 |
| SNAVNCLLCVLTRDLIWMDA | 8.958 ± 0.067 |

| Substance | amyloid nucleation score |
| --- | --- |
| SNEKVAQSLFAKEREPLRGN | 2.35 ± 0.12 |
| SNGTWLKNLGGPPPGRAMPW | 0.419 ± 0.34 |
| SNLNLFITYLTLSTNDR | 9.225 ± 0.042 |
| SNNAI | 0.476 ± 0.56 |
| SNNWSLDMRRPVFKPPYGEG | -0.744 ± 0.53 |
| SNSDIWHNARHPIDLATYC | 0.293 ± 0.61 |
| SNSKVSVLIFFSAHKGECAA | inactive |
| SNVSGCMELFNWVGYFPVSP | -0.733 ± 0.62 |
| SNVTTYSNVSYIRHHSHYLG | 1.32 ± 0.44 |
| SNVYYRVC | 4.72 ± 0.084 |
| SNYDGPGSYIYEKYCSSEEG | -0.703 ± 1 |
| SNYSTGHGAGMEDRRLEMGG | 0.717 ± 0.49 |
| SNYVSTHRIWFGYSWCKQEK | 4.24 ± 0.13 |
| SPACLNS | 4.58 ± 0.053 |
| SPFFVMLIITFTRMVEDLRM | -0.683 ± 1.1 |
| SPIYYIKGYFLLISKCFADR | 4.56 ± 0.073 |
| SPPLYARHCYILERITTDRM | -1.73 ± 0.62 |
| SPQLTIYPRMYSRSLVLNRC | 0.078 ± 0.77 |
| SPSDAL | -0.578 ± 0.36 |
| SPTCWRRRTPLIVKYRFISV | 1.15 ± 0.34 |
